From patent US20230287120A1 (ALLOGENE THERAPEUTICS, published 2023) come the findings set out here.

In experiment [1] the target is T1, Flag tagged recombinant DLL3 (Adipogen) (Homo sapiens (Human), UniProt Q9NYJ7 27-492).
T1 construct: Bought reagent; also called Flag-DLL3
T1 sequence: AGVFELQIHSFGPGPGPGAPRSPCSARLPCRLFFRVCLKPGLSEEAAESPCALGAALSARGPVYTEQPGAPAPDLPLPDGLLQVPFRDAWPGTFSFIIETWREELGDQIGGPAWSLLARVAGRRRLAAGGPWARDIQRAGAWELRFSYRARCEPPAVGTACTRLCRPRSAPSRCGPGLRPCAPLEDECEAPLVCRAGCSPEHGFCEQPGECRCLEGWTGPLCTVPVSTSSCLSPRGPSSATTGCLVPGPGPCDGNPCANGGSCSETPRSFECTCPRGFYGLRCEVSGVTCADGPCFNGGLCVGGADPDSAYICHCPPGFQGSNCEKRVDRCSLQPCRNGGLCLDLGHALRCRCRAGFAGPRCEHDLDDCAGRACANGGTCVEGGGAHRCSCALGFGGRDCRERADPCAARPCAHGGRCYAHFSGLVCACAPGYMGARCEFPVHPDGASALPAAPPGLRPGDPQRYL
Description: flow cytometry, percent of T cells that recognise recombinant DLL3, Donor 116.
Description: (§1) To determine the percentage of T cells that were successfully transduced with DLL3 CAR, T cells were first incubated with 1 ug/ml Flag tagged recombinant DLL3 (Adipogen) in PBS+1% BSA for 20 minutes at 4 C.

The target of experiment [2] is T1, Flag tagged recombinant DLL3 (Adipogen). Description: flow cytometry, percent of T cells that recognise recombinant DLL3, Donor 117.
Description: as §1
Experiment [3] shares this target. Briefly: flow cytometry, primary T cells with the CAR, 1 ug/ml Flag tagged recombinant DLL3, PE anti-Flag. Background: Flow cytometry measures light scatter and fluorescence of single cells or particles in a stream.
Description: as §1
For experiment [4] the target is unchanged. Description: flow cytometry, percent of T cells that recognise recombinant DLL3, Donor 419.
Description: as §1
Experiment [5] shares this target. Description: flow cytometry, percent of T cells that recognise recombinant DLL3, Donor 503.
Description: as §1

B1: 6D8 (other)
CAR: QITLKESGPTLVKPTQTLTLTCTFSGFSLSTRGVGVGWIRQPPGKALEWLALIYWNDDKRYSPSLQTRLTITKDTPKNQVVLTMTNMDPVDTATYYCARSNWGNWYFALWGRGTLVTVSSGGGGSGGGGSGGGGSGGGGSEIVLTQSPATLSLSPGERATLSCRASQSVSSYLAWYQQKPGQAPRLLIYDAFYRATGIPARFSGSGSGTDFTLTISSLEPEDFAVYYCQHRSNWPITFGQGTRLEIKTTTPAPRPPTPAPTIASQPLSLRPEACRPAAGGAVHTRGLDFACDIYIWAPLAGTCGVLLLSLVITKRGRKKLLYIFKQPFMRPVQTTQEEDGCSCRFPEEEEGGCELRVKFSRSADAPAYQQGQNQLYNELNLGRREEYDVLDKRRGRDPEMGGKPRRKNPQEGLYNELQKDKMAEAYSEIGMKGERRRGKGHDGLYQGLSTATKDTYDALHMQALPPR
notes: also called anti-DLL3 CAR with 6D8 scFv, on primary T cells
For B1, the Transduction efficiency in experiment [1] is 32.4%; in experiment [2] it was 34.8%. For the same molecule, the “Rec-DLL3 gate, percent of live CD3+ cells” value (“Rec-DLL3 gate, percent” for short) in experiment [3] amounted to 32.4%.

B2: 3B1 (other)
CAR: QVQLQQSGPGLVKPSQTLSLTCAISGDSVSSNTTAWKWSRQSPSKGLEWLGWTYYRSKWYYDYTVSVKSRITINPDTSKNQFSLQLNSVTPEDTAVYYCARWIFHDAFDIWGQGTMVTVSSGGGGSGGGGSGGGGSGGGGSQSALTQPPSASGTPGQRVTISCSGSSSNIGSNTVNWYQQLPGTAPKLLIYTNNQRPSGVPDRFSGSKSGTSASLAISGLQSEDEADYFCSTWDDSLNGPVFGGGTKLTVLTTTPAPRPPTPAPTIASQPLSLRPEACRPAAGGAVHTRGLDFACDIYIWAPLAGTCGVLLLSLVITKRGRKKLLYIFKQPFMRPVQTTQEEDGCSCRFPEEEEGGCELRVKFSRSADAPAYQQGQNQLYNELNLGRREEYDVLDKRRGRDPEMGGKPRRKNPQEGLYNELQKDKMAEAYSEIGMKGERRRGKGHDGLYQGLSTATKDTYDALHMQALPPR
notes: also called anti-DLL3 CAR with 3B1 scFv, on primary T cells
In the case of B2, the figures for the Transduction efficiency in experiment [4] and in experiment [5] were 6.15% and 7.95%, respectively.

B3: 2404.6H1 (other)
CAR: QVQLVESGGGVVQPGRSLRLSCAASGFTFSSYGMHWVRQTPGKGLEWVAVISYDGNSNYYADSVKGRFTISRDNSKNTLYLQMNSLRAEDTAVYYCARDGATVTSYYYYGMDVWGQGTTVTVSSGGGGSGGGGSGGGGSGGGGSEIVLTQSPGTLSLSPGERATLSCRASQSVSRTYLAWYHQKPGQAPRLLIYGASSRATGISDRFSGSGSGTDFTLTISRLEPEDFAVYYCQQYGTSPITFGQGTRLEIKTTTPAPRPPTPAPTIASQPLSLRPEACRPAAGGAVHTRGLDFACDIYIWAPLAGTCGVLLLSLVITKRGRKKLLYIFKQPFMRPVQTTQEEDGCSCRFPEEEEGGCELRVKFSRSADAPAYQQGQNQLYNELNLGRREEYDVLDKRRGRDPEMGGKPRRKNPQEGLYNELQKDKMAEAYSEIGMKGERRRGKGHDGLYQGLSTATKDTYDALHMQALPPR
notes: also called anti-DLL3 CAR with 2404.6H1 scFv, on primary T cells
In the case of B3, the Transduction efficiency in experiment [4] is 6.01%; in experiment [5], 6.41%.

B4: 11E4 (other)
CAR: QVQLQESGPGLVKPSETLSLTCTVSGGSISSYYWSWIRQSPGKGLEWIGYVYYSDITNYNPSLKSRVTISVDTSKNQFSLNLNSVTAADTAFYFCARIGVAGFYFDYWGQGTLVTVSSGGGGSGGGGSGGGGSGGGGSEIVLTQSPDTLSLSPGERATLSCRASQSVSRRYLAWYQQKPGQAPRLLIYGASSRATGIPDRFSGSGSGTDFTLTISRLEPEDFEVYYCQQYGTSPITFGQGTRLEIKTTTPAPRPPTPAPTIASQPLSLRPEACRPAAGGAVHTRGLDFACDIYIWAPLAGTCGVLLLSLVITKRGRKKLLYIFKQPFMRPVQTTQEEDGCSCRFPEEEEGGCELRVKFSRSADAPAYQQGQNQLYNELNLGRREEYDVLDKRRGRDPEMGGKPRRKNPQEGLYNELQKDKMAEAYSEIGMKGERRRGKGHDGLYQGLSTATKDTYDALHMQALPPR
notes: also called anti-DLL3 CAR with 11E4 scFv, on primary T cells
In the case of B4, the Transduction efficiency in experiment [4] is 54.8%; in experiment [5], 62.8%.

B5: 2A6.C5 (other)
CAR: QVQLQESGPGLVKPSETLSLTCTVSNVSISSYYWSWIRQPPGKGLEWIGYIYYSGTTNYNPSLKSRVTMSVDTSKNQFSLKLSSVTAADTAVYFCARLSNWGFAFDIWGQGTMVTFSSGGGGSGGGGSGGGGSGGGGSEIVLTQSPGTLSLSPGERATLSCRASQTISSSYLAWYQQKPGQAPRLLIYGASSRATGIPDRFSGSGSGTEFTLTISRLEPEDFAVYYCQQYGWSPITFGQGTRLEIKTTTPAPRPPTPAPTIASQPLSLRPEACRPAAGGAVHTRGLDFACDIYIWAPLAGTCGVLLLSLVITKRGRKKLLYIFKQPFMRPVQTTQEEDGCSCRFPEEEEGGCELRVKFSRSADAPAYQQGQNQLYNELNLGRREEYDVLDKRRGRDPEMGGKPRRKNPQEGLYNELQKDKMAEAYSEIGMKGERRRGKGHDGLYQGLSTATKDTYDALHMQALPPR
notes: also called anti-DLL3 CAR with 2A6.C5 scFv, on primary T cells
With B5, the Transduction efficiency is 37.2% in experiment [1] and 37.7% in experiment [2]. In addition, in experiment [3], the “Rec-DLL3 gate, percent” value was determined as 37.2%.

B6: 11A8 (other)
CAR: QVQLQQSGPGLVKPSQTLSLTCAISGDSVSSNSATWNWIRQSPSTGLEWLARTYYRSKWYNDYEVSVKSQITINPDTSKNQFSLQLNSVTPEDTAVYYCARGGIVGAPDAFDIWGQGTMVTVSSGGGGSGGGGSGGGGSGGGGSQSVLTQPPSASGTPGQGVTISCSGSSSNIGSNPVNWYQQLPGTAPKLLIYSNNQRPSGVPDRFSDSKSGTSASLAISGLQSEDEADYYCSAWDDWLNGYVFGTGTKVTVLTTTPAPRPPTPAPTIASQPLSLRPEACRPAAGGAVHTRGLDFACDIYIWAPLAGTCGVLLLSLVITKRGRKKLLYIFKQPFMRPVQTTQEEDGCSCRFPEEEEGGCELRVKFSRSADAPAYQQGQNQLYNELNLGRREEYDVLDKRRGRDPEMGGKPRRKNPQEGLYNELQKDKMAEAYSEIGMKGERRRGKGHDGLYQGLSTATKDTYDALHMQALPPR
notes: also called anti-DLL3 CAR with 11A8 scFv, on primary T cells
On to B6, for which the figures for the Transduction efficiency in experiment [4] and in experiment [5] were 33.4% and 45.1%, respectively.

B7: 5G2 (other)
CAR: QVQLQQSGPGLVKPSQTLSLTCAISGDSVSSNSAVWNWIRQSPSRGLEWLGWTYYRSKYYNDYAVSLKSRITINPDTSKNQFSLQLNSLTPEDTAVYYCTRGGIVGAPDGFDIWGQGTMVTVSSGGGGSGGGGSGGGGSGGGGSQSALTQPPSASGTPGQRVTISCSGSNSNIGSNPINWYQQLPGTAPKLLIYSNNQRPSGVPDRFSGSKSGTSASLAISGLQSEDEADYYCAAWDDSLNGHVFGTGTKVTVLTTTPAPRPPTPAPTIASQPLSLRPEACRPAAGGAVHTRGLDFACDIYIWAPLAGTCGVLLLSLVITKRGRKKLLYIFKQPFMRPVQTTQEEDGCSCRFPEEEEGGCELRVKFSRSADAPAYQQGQNQLYNELNLGRREEYDVLDKRRGRDPEMGGKPRRKNPQEGLYNELQKDKMAEAYSEIGMKGERRRGKGHDGLYQGLSTATKDTYDALHMQALPPR
notes: also called anti-DLL3 CAR with 5G2 scFv, on primary T cells
As to B7, the Transduction efficiency in experiment [4] was determined as 36.7%; in experiment [5], 42.8%.

B8: 5A2 (other)
CAR: QVQLQESGPGLMKPSETLSLTCTVSGGSISSSYWSCIRQPPGKGLEWIGYIYYSGTTNYNPSLKSRVTLSLDTSKNQFSLRLTSVTAADTAVYYCARVAPTGFWFDYWGQGTLVTVSSGGGGSGGGGSGGGGSGGGGSEIVLTQSPGTLSLSPGERATLSCRASQRVSSRYLAWYQQKPGQAPRLLIYGASSRATGIPDRFSGSGSGTDFTLTISRLEPEEFAVYYCQQYGTSPLTFGGGTKVEIKTTTPAPRPPTPAPTIASQPLSLRPEACRPAAGGAVHTRGLDFACDIYIWAPLAGTCGVLLLSLVITKRGRKKLLYIFKQPFMRPVQTTQEEDGCSCRFPEEEEGGCELRVKFSRSADAPAYQQGQNQLYNELNLGRREEYDVLDKRRGRDPEMGGKPRRKNPQEGLYNELQKDKMAEAYSEIGMKGERRRGKGHDGLYQGLSTATKDTYDALHMQALPPR
notes: also called anti-DLL3 CAR with 5A2 scFv, on primary T cells
As to B8, the Transduction efficiency in experiment [1] was 49.1%; in experiment [2], 47.4%. Further, the “Rec-DLL3 gate, percent” value in experiment [3] stood at 49.1%.

B9: 2D3 (other)
CAR: QVQLQESGPGLVKPSETLSLTCTVSDNSISNYYWSWIRQPPGKGLEWIAYIYYSGTTNYNPSLKSRVTISLDTSKNQFSLKLSSVTAADTAVYYCARLFNWGFAFDIWGQGTMVTVSSGGGGSGGGGSGGGGSGGGGSEIVMTQSPATLSVSPGERATLSCRASQSVSSNLAWYQQKPGQAPRLLIYGASTRATGIPARFSGSGSGTEFTLTISSLQSEDFAVYYCQQYNNWPLTFGGGTKVEIKTTTPAPRPPTPAPTIASQPLSLRPEACRPAAGGAVHTRGLDFACDIYIWAPLAGTCGVLLLSLVITKRGRKKLLYIFKQPFMRPVQTTQEEDGCSCRFPEEEEGGCELRVKFSRSADAPAYQQGQNQLYNELNLGRREEYDVLDKRRGRDPEMGGKPRRKNPQEGLYNELQKDKMAEAYSEIGMKGERRRGKGHDGLYQGLSTATKDTYDALHMQALPPR
notes: also called anti-DLL3 CAR with 2D3 scFv, on primary T cells
In the case of B9, the Transduction efficiency in experiment [1] was 46.1%; in experiment [2] it was 47.4%. For the same molecule, the “Rec-DLL3 gate, percent” value in experiment [3] worked out at 46.1%.
